Laboratory results from the DeepSol protein solubility set.

Experiment: soluble on expression in E. coli; label from the status in PepcDB or PDB records

Soluble on expression in E. coli, soluble:
MAHHHHHHMPPLLTEVKPAGYRPQLRVCYLCGQQFGSASIGIHVPQCYQKKLSQWEVTDPAVRGPKPKHPDMVKWKGGNGASVEAINREQYQEFNSQLVACPHCARTFLPDRLPVHLRGCRGDGKVGVPSSKAKADGGGGSTPGGGKHKSEPRRAAGCRSLSPGPPLLPTCYLCGQQFGTASIGIHVPQCYEKKLAQWQNADPHSRGHPPKHPDTVNWRGRPGASPREQAEEQFQEFMNNLEECPNCSRRFLPERLVVHLRSCRPDNPPKPTSPRKAKTGGGARCPTPTTATTPADTAATKASIGGQTPRSEKQQRKQEPPTSSAGEDWIHPKRNRLTRHSTLPTESRVCPQCDAVEYDADAKFCRDCGHNFVPKPLSNSCQHCGERIPHGSRFCGTCGQPVQGASAHELTPGGPNKHASTVRRVVCPACEAISDADGNFCDNCGAALGDADLTPAPAAAGAAATPPSTRAGGSTEHKAVLYCAKCKETVEDTTAVFCEDCGGRLEALKVLTTKDDGPPLRADGTLPPSDVARLKVARASTPQRPSASEPAKTVTTPVASSVAPARPQTRNACTPIEEHTDEFPAYAEDDLVRVPCSHCGRQFASESLAKHERICCSQKKRRVFNATKQRLPEGATAAAKPSAGSQPAAPKRDWKAESESFRRALREARQVDQVLKAGGTAKDLPPPTYSTNPDYVPCPHCQRRFAPDVAARHIPRCANTVNRPKPPPRRR
MNFHHLAYWQDKALSLAIENRLFINGEYTAAAENETFETVDPVTQAPLAKIARGKSVDIDRAMSAARGVFERGDWSLSSPAKRKAVLNKLADLMEAHAEELALLETLDTGKPIRHSLRDDIPGAARAIRWYAEAIDKVYGEVATTSSHELAMIVREPVGVIAAIVPWNFPLLLTCWKLGPALAAGNSVILKPSEKSPLSAIRLAGLAKEAGLPDGVLNVVTGFGHEAGQALSRHNDIDAIAFTGSTRTGKQLLKDAGDSNMKRVWLEAGGKSANIVFADCPDLQQAASATAAGIFYNQGQVCIAGTRLLLEESIADEFLALLKQQAQNWQPGHPLDPATTMGTLIDCAHADSVHSFIREGESKGQLLLDGRNAGLAAAIGPTIFVDVDPNASLSREEIFGPVLVVTRFTSEEQALQLANDSQYGLGAAVWTRDLSRAHRMSRRLKAGSVFVNNYNDGDMTVPFGGYKQSGNGRDKSLHALEKFTELKTIWISLEA
GMPTRVIEDKGDMTPSFGIDDRIFLGEGLFETIRVNSSKPSFAYMHWERLGNSARQLGIPFEISFDDWFEHLIQKIQKDNLYHGGIKAILSGGPASRGLAERGQVSQLIFQTFNYSIQKHPVRLISINWLRDKANPLYQLKSVNYLEAIIAQRQAIAVGADDALFFNTENHVTETTCANLFLIENNILYTPRVEDGILPGITRARLISHCQQHKMSVQEISLTKKRIEDADAVFLTNSLQGIRRVLSLDNIIFEVNHPIIDKLIFLLNQDES
MTGEIVTVVKGKVRWVEGEQFIGRIEGDKCSVILGEGGISPMKLLLLSVAGCTSYDVVMILKKMREPIKGLEVEIEGVRREEHPRIYKEVTIHYKIYGNVNEKKARRAIELSQEKYCSASAHLKLSGTDVKYTLEVIRDDEPPSQLNK
MAHHHHHHSLDASTLFKKVKVKRVLGSLEQQIDDITTDSRTAREGSIFVASVGYTVDSHKFCQNVADQGCKLVVVNKEQSLPANVTQVVVPDTLRVASILAHTLYDYPSHQLVTFGVTGTNGKTSIATMIHLIQRKLQKNSAYLGTNGFQINETKTKGANTTPETVSLTKKIKEAVDAGAESMTLEVSSHGLVLGRLRGVEFDVAIFSNLTQDHLDFHGTMEAYGHAKSLLFSQLGEDLSKEKYVVLNNDDSFSEYLRTVTPYEVFSYGIDEEAQFMAKNIQESLQGVSFDFVTPFGTYPVKSPYVGKFNISNIMAAMIAVWSKGTSLETIIKAVENLEPVEGRLEVLDPSLPIDLIIDYAHTADGMNKLIDAVQPFVKQKLIFLVGMAGERDLTKTPEMGRVACRADYVIFTPDNPANDDPKMLKAELAKGATHQNYIEFDDRAEGIKHAIDIAEPGDTVVLASKGREPYQIMPGHIKVPHRDDLIGLEAAYKKFGGGPVDQEG
MNEKIEQAIREMGFKNFTEVQSKTIPLMLQGKNVVVRAKTGSGKTAAYAIPILELGMKSLVVTPTRELTRQVASHIRDIGRYMDTKVAEVYGGMPYKAQINRVRNADIVVATPGRLLDLWSKGVIDLSSFEIVIIDEADLMFEMGFIDDIKIILAQTSNRKITGLFSATIPEEIRKVVKDFITNYEEIEACIGLANVEHKFVHVKDDWRSKVQALRENKDKGVIVFVRTRNRVAKLVRLFDNAIELRGDLPQSVRNRNIDAFREGEYDMLITTDVASRGLDIPLVEKVINFDAPQDLRTYIHRIGRTGRMGRKGEAITFILNEYWLEKEVKKVSQKA
RTEAGDAYYSKFANNTPLPALMVSRKKFGSSYVYDKSYKTWDVPIAEQMEQKAKINIFAVAEYTDTQKIKVTVKGKILEGNTLPKSMVQVYLLEDKLIAPQVDGNTTVENYEHNHVLRGAVNGIWGEEFVNLKDYLYTYAVEPLSGMSFVAENYSIVAFVYDVQTFEVYDVVHVKINPQSDGK
MDSKQQCVKLNDGHFMPVLGFGTYAPPEVPRSKALEVTKLAIEAGFRHIDSAHLYNNEEQVGLAIRSKIADGSVKREDIFYTSKLWSTFHRPELVRPALENSLKKAQLDYVDLYLIHSPMSLKPGEELSPTDENGKVIFDIVDLCTTWEAMEKCKDAGLAKSIGVSNFNRRQLEMILNKPGLKYKPVCNQVECHPYFNRSKLLDFCKSKDIVLVAYSALGSQRDKRWVDPNSPVLLEDPVLCALAKKHKRTPALIALRYQLQRGVVVLAKSYNEQRIRQNVQVFEFQLTAEDMKAIDGLDRNLHYFNSDSFASHPNYPYSDEYLEHHHHHH
MESEGEAQMFADCDQKTVKQTAAKPMSSKKKQDFQALASDRQLAIVFSSMIQVSEAFDYGIGNPEYFVRISMTEEEADIAKENLESIKLENKSLKKQNSEAVALLQKTRNQDMSRIEIQQLTENRAGFFETADSMIKLINQVTPKNAKKTRQQLDQLKKQYTQYSAESIKIMNSIVKKQKADKASFERHLEALLQKQPGQQVRSELYLEHHHHHH
GPGSMAAAEGGQRSDEQVRAAALSWLRMTPVEKRVYEEEAQSWQTRLETLSTAPPSAHDLGEGSSSAAALPDALPSAEQPLPQQQHSSHLVAQRSSPKATAERLPRSKSSFVLFRAHMKGRRKMCMRELCAVWRNMSAEEKAPYDAAAASKRTEQFLSQTPSAPGSQS

Soluble on expression in E. coli, not soluble:
MSLKLIVKIGLIVLLLMFNYQGVDADVVSSAIDRYATTTEHQDNMASDHGTLDTMSFTHSLLTGQQQVLAKLMPDDLRIRRAEELQQNFLKILIGRFSLREEILATDRAKIFPSNPIHCVSPACHYFVFTLRRILIEGHHHHHH
QTLARVDLAYDDYDGIFDCEYAYKAWRDDCFRTAERGRGPVLHEDMTIASIGKDGKPIYTKEQYSIGSRTSRIYWRIYNKALEQKLANTGLVWYRSEVELKKWNVDVLLNPAGAYAALNDFAASISTAKKFNTKPVPTKRAALDLLASAHWMRRQYGKILNSLIEFHEGDIETVVGSLVRDGTKFTFPDTYG
VDEIGELADSFNTLTKRVQEAQAMTEGERRKLSSVLAYMTDGVIATDRRGKVILINTPAEKMLRVKHESANGRSIIDVLDIGDTYQFEDLMEVDGSLTMDRSTLDKPYVLRANFSVIQRETG
MDFSCGAASIATLLNNFYGRHYSEAEILDKMDKTQMRASFDDMQRIMPELGFEAQGYALPFEQLVQLKIPVIVYLKYRKNNHFSVLNGINGETVLLADPSLGHVSMSKSQFLSAWKTRDGEMEGKILAIVPKNTDFVRNQMFFNKNPVRQTRFTVEQIQMRQKR
RLPFMAQYDRLGLTRSNTSCHNNTGKQCLWGDTEKQPELLVLGDSHADHYKTFFDAVGKKEKWSATMVSADACAYVEGYASRVFQNWAACRAVYRYAEEHLPRYSKVVLAMRWGSQMPENSRSLAYDAGFFQKFDRMLHKLSSEKQAVYLMADNLASSYNVQRAYILSSRIPGYRQALRPDDESTLKANARIRELAAKYPNVYIIDAAAYIPADFQIGGLPVYSDKDHINPYGGTELAKRFSEKQRFLDTRHNH
MGSDKIHHHHHHMKMSWNHQYTNYGSIADDNGDEEKAENSEGAAAEKVEKQHDDDGVVVHEETDGVASSRSSHHDKQKPGETKKSGDGKMDDDDIITTARSSSRRICGSAASSSDSETADDAPLLPDEGPSHAVRLEMPGDKPASPHDRFPKTPLKTL
MGSDKIHHHHHHMHVVELRFECFDNTTITAAERAINGLLEAYRANGQVLGREFAVAFNEGEFRVRLLLPEKSSLAKRFNSPWVNYALEELTQAKLLHPREKYIGQDINSEVSSTETPSWQLLYTSYVHMCSPLRNGDTLQPIPLYQIPATFNGDHKRVIKWQTEWQACDELQMAAATKAEFAALDELSQCDSDLFRRGWDLRGRIEYLTKIPTYYYLYRVGGESLAAEQQRPCPRCGNTHWLLETPLLDLFHFRCDNCRIVSNISWDHL
MPKRRLQTTLSEEAFRIIEKFKPDYGGINEVIEAALKLLNREDRNLSEDDILLIRLIRDLDFTGCGRSQYMHLICGDIEKAVKESMMETAVEWFLKKPFAEIELEEFLETVKRGWKVLNRVDYVEITKGDGWIQIFCEHTMRRREVSEFLAMHILNIYEKYYKGEWDVVKSISTNGFTLKFYRRV
MGSDKIHHHHHHMDIQKIAKFFEQLQNQDFAQWEDCFGKYDVEFSDDTAETFSQSCDHVVLFNNRLSKVMLLKTSDSILSIGGFQAHNRGKIEAKNRKKTLITIPTQLANDSFGTNRYSLQDNERKPSMGGIYPCKTIFDFSILLSNEIEKSLWGIGEYVGVYFSIIDYSSKYQENFEELIAWTVEQIDELSSLLKREDNRTILRRIASLLTVKCLIMRSNGNHEIGCSIDHSFARYLENKIQIPHGKAVYLGSLLTLLFYPEWEDKGLSLEKLFKIGHYVGITMSDIQYLKTQDFSTLVKEASLLRPKRSFSLDQIQEGEAMRIKKAKERANMITQIWDR
MSADTLQIAYSPCPNDTFVFDALAHGRVPGAPALDVTFADIDITNGMAERGELDVLKVSYAVLPYVLDDWALLPCGGALGRGCGPLVLTREADADLRGRTVAVPSETSTAYLLFRLWAADTVPGGVGEIVVMPFHEIMPAVRDGKVDAGLVIHEARFTYQNYGLHKLADMGEHWEHTTGLPIPLGAIIARRSLGAPALTRLADAVRASVRAAWDDPEASRPYVMEHAQEMDPAVADQHIGLYVNEFTADLGEDGYAAIRGLLTRAAAEGLVPALGPDALAFP
MGSDKIHHHHHHMSDRKEDLERQINLTFAFLSANSYSRKFLTQVWIRDNVGDYKGLTDTAFRKKLQRDLAYLRRVGVPIEQFTVTSGIAEGQQAYRLAQDSYKLPEVEFTPDEAAVLGMAGEMGHNQELGAFARSGWTKLAAGGAQRDLSTSTALTNAGDLGSLSAKTLDAIIKARQLGKQISFEYRRAPKDAPSLRHMDPWGLVPERDRIYLVGFDLDRQEARTFRITRVRNINLGADATHPMPAGTNLQDMVRAQLRRKSVLIDATLRITPGRAVELRAAGVETSDGAWFLEDVDRDWLVRTAAAHAPEALVIEPKDVIDDVIALLRKVENEVV
MIQRNSTLAVLRESFVAGSDENLSPIMHHLWKMEGGAIYFCRSGWAHVTIDLKEYEIVKNTQVVLLPGSIIRINGSSSDFTASFFGFPKDMFREACLRLEPTFFRFMKEKPCYVLPDKDTGAINGLIQATTAIYNDRENRFRNQIAKNHLQSFMLDIYDKCYRYFDKQEIEGGSRQDEIFKKFVALVHENCISQREVNFYANELCISTKYLTGICRSVTGDSAKKIIDDFAILEIKVLLQSTELTMQDIADRLGFPDQSYLGRYFKRHEGMSPREYQNRYVI
